Measured values: paper PMC9712776

B1: dynamin-2 (human Dyn2 isoform 1), wild type, P50570 S848A (protein)
chain: MGNRGMEELIPLVNKLQDAFSSIGQSCHLDLPQIAVVGGQSAGKSSVLENFVGRDFLPRGSGIVTRRPLILQLIFSKTEHAEFLHCKSKKFTDFDEVRQEIEAETDRVTGTNKGISPVPINLRVYSPHVLNLTLIDLPGITKVPVGDQPPDIEYQIKDMILQFISRESSLILAVTPANMDLANSDALKLAKEVDPQGLRTIGVITKLDLMDEGTDARDVLENKLLPLRRGYIGVVNRSQKDIEGKKDIRAALAAERKFFLSHPAYRHMADRMGTPHLQKTLNQQLTNHIRESLPALRSKLQSQLLSLEKEVEEYKNFRPDDPTRKTKALLQMVQQFGVDFEKRIEGSGDQVDTLELSGGARINRIFHERFPFELVKMEFDEKDLRREISYAIKNIHGVRTGLFTPDLAFEAIVKKQVVKLKEPCLKCVDLVIQELINTVRQCTSKLSSYPRLREETERIVTTYIREREGRTKDQILLLIDIEQSYINTNHEDFIGFANAQQRSTQLNKKRAIPNQGEILVIRRGWLTINNISLMKGGSKEYWFVLTAESLSWYKDEEEKEKKYMLPLDNLKIRDVEKGFMSNKHVFAIFNTEQRNVYKDLRQIELACDSQEDVDSWKASFLRAGVYPEKDQAENEDGAQENTFSMDPQLERQVETIRNLVDSYVAIINKSIRDLMPKTIMHLMINNTKAFIHHELLAYLYSSADQSSLMEESADQAQRRDDMLRMYHALKEALNIIGDISTSTVSTPVPPPVDDTWLQSASSHSPTPQRRPVSSIHPPGRPPAVRGPTPGPPLIPVPVGAAASFSAPPIPSRPGPQSVFANSDLFPAPPQIPSRPVRIPPGIPPGVPARRPPAAPSRPTIIRPAEPSLLD
B2: dynamin-2 (human Dyn2 isoform 1), wild type, P50570 S848E (protein)
chain: MGNRGMEELIPLVNKLQDAFSSIGQSCHLDLPQIAVVGGQSAGKSSVLENFVGRDFLPRGSGIVTRRPLILQLIFSKTEHAEFLHCKSKKFTDFDEVRQEIEAETDRVTGTNKGISPVPINLRVYSPHVLNLTLIDLPGITKVPVGDQPPDIEYQIKDMILQFISRESSLILAVTPANMDLANSDALKLAKEVDPQGLRTIGVITKLDLMDEGTDARDVLENKLLPLRRGYIGVVNRSQKDIEGKKDIRAALAAERKFFLSHPAYRHMADRMGTPHLQKTLNQQLTNHIRESLPALRSKLQSQLLSLEKEVEEYKNFRPDDPTRKTKALLQMVQQFGVDFEKRIEGSGDQVDTLELSGGARINRIFHERFPFELVKMEFDEKDLRREISYAIKNIHGVRTGLFTPDLAFEAIVKKQVVKLKEPCLKCVDLVIQELINTVRQCTSKLSSYPRLREETERIVTTYIREREGRTKDQILLLIDIEQSYINTNHEDFIGFANAQQRSTQLNKKRAIPNQGEILVIRRGWLTINNISLMKGGSKEYWFVLTAESLSWYKDEEEKEKKYMLPLDNLKIRDVEKGFMSNKHVFAIFNTEQRNVYKDLRQIELACDSQEDVDSWKASFLRAGVYPEKDQAENEDGAQENTFSMDPQLERQVETIRNLVDSYVAIINKSIRDLMPKTIMHLMINNTKAFIHHELLAYLYSSADQSSLMEESADQAQRRDDMLRMYHALKEALNIIGDISTSTVSTPVPPPVDDTWLQSASSHSPTPQRRPVSSIHPPGRPPAVRGPTPGPPLIPVPVGAAASFSAPPIPSRPGPQSVFANSDLFPAPPQIPSRPVRIPPGIPPGVPERRPPAAPSRPTIIRPAEPSLLD
B3: dynamin-2 (human Dyn2 isoform 1), wild type, P50570 S856E (protein)
chain: MGNRGMEELIPLVNKLQDAFSSIGQSCHLDLPQIAVVGGQSAGKSSVLENFVGRDFLPRGSGIVTRRPLILQLIFSKTEHAEFLHCKSKKFTDFDEVRQEIEAETDRVTGTNKGISPVPINLRVYSPHVLNLTLIDLPGITKVPVGDQPPDIEYQIKDMILQFISRESSLILAVTPANMDLANSDALKLAKEVDPQGLRTIGVITKLDLMDEGTDARDVLENKLLPLRRGYIGVVNRSQKDIEGKKDIRAALAAERKFFLSHPAYRHMADRMGTPHLQKTLNQQLTNHIRESLPALRSKLQSQLLSLEKEVEEYKNFRPDDPTRKTKALLQMVQQFGVDFEKRIEGSGDQVDTLELSGGARINRIFHERFPFELVKMEFDEKDLRREISYAIKNIHGVRTGLFTPDLAFEAIVKKQVVKLKEPCLKCVDLVIQELINTVRQCTSKLSSYPRLREETERIVTTYIREREGRTKDQILLLIDIEQSYINTNHEDFIGFANAQQRSTQLNKKRAIPNQGEILVIRRGWLTINNISLMKGGSKEYWFVLTAESLSWYKDEEEKEKKYMLPLDNLKIRDVEKGFMSNKHVFAIFNTEQRNVYKDLRQIELACDSQEDVDSWKASFLRAGVYPEKDQAENEDGAQENTFSMDPQLERQVETIRNLVDSYVAIINKSIRDLMPKTIMHLMINNTKAFIHHELLAYLYSSADQSSLMEESADQAQRRDDMLRMYHALKEALNIIGDISTSTVSTPVPPPVDDTWLQSASSHSPTPQRRPVSSIHPPGRPPAVRGPTPGPPLIPVPVGAAASFSAPPIPSRPGPQSVFANSDLFPAPPQIPSRPVRIPPGIPPGVPSRRPPAAPERPTIIRPAEPSLLD
B4: dynamin-2 (human Dyn2 isoform 1), wild type, P50570 S856A (protein)
chain: MGNRGMEELIPLVNKLQDAFSSIGQSCHLDLPQIAVVGGQSAGKSSVLENFVGRDFLPRGSGIVTRRPLILQLIFSKTEHAEFLHCKSKKFTDFDEVRQEIEAETDRVTGTNKGISPVPINLRVYSPHVLNLTLIDLPGITKVPVGDQPPDIEYQIKDMILQFISRESSLILAVTPANMDLANSDALKLAKEVDPQGLRTIGVITKLDLMDEGTDARDVLENKLLPLRRGYIGVVNRSQKDIEGKKDIRAALAAERKFFLSHPAYRHMADRMGTPHLQKTLNQQLTNHIRESLPALRSKLQSQLLSLEKEVEEYKNFRPDDPTRKTKALLQMVQQFGVDFEKRIEGSGDQVDTLELSGGARINRIFHERFPFELVKMEFDEKDLRREISYAIKNIHGVRTGLFTPDLAFEAIVKKQVVKLKEPCLKCVDLVIQELINTVRQCTSKLSSYPRLREETERIVTTYIREREGRTKDQILLLIDIEQSYINTNHEDFIGFANAQQRSTQLNKKRAIPNQGEILVIRRGWLTINNISLMKGGSKEYWFVLTAESLSWYKDEEEKEKKYMLPLDNLKIRDVEKGFMSNKHVFAIFNTEQRNVYKDLRQIELACDSQEDVDSWKASFLRAGVYPEKDQAENEDGAQENTFSMDPQLERQVETIRNLVDSYVAIINKSIRDLMPKTIMHLMINNTKAFIHHELLAYLYSSADQSSLMEESADQAQRRDDMLRMYHALKEALNIIGDISTSTVSTPVPPPVDDTWLQSASSHSPTPQRRPVSSIHPPGRPPAVRGPTPGPPLIPVPVGAAASFSAPPIPSRPGPQSVFANSDLFPAPPQIPSRPVRIPPGIPPGVPSRRPPAAPARPTIIRPAEPSLLD

Target: T1, GST-tagged SH3 domain of Bin1
T1 chain: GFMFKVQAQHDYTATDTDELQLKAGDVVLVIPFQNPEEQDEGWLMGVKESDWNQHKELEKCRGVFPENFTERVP
Assay: GST pulldown
Settings: parent: 1.0, read off a plot

[1] = chain shown with the change, 12 µg GST-Bin-SH3, 6 µg purified Dyn2

| Binder | ratio to parent [1] | ratio to parent (chain shown with the change;) |
| --- | --- | --- |
| B1 | 0.86 | 1.2 |
| B2 | 0.42 | 0.66 |
| B3 | – | 1 |
| B4 | – | 1.1 |
